Laboratory results: the supplement of paper PMC9170038

Tested on: K4 kissing-loop RNA reporter
Experiment: apparent KD of K4 kissing-loop reporter; higher = weaker reporter binding
Settings: Eterna round: R107
Protocol: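 RNA-MaP round R107: designed RNA switches with theophylline, tryptophan, arginine or FMN aptamers are transcribed on-chip within common flanks. They are titrated with a labelled K4 kissing-loop RNA reporter in RNA-MaP buffer (100 mM Tris pH 7.5, 80 mM KCl, 4 mM MgCl2), without ligand or with the indicated ligand. Median apparent KD per design.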

[1] = input ligand: theophylline 20 uM
[2] = input ligand: tryptophan 2.4 mM
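Further: bound reporter read as fluorescence of individual clusters on recovered sequencing chips by microscopy, with normalized cluster intensities fitted with a binding model.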

| Sequence | apparent KD of K4 kissing-loop reporter (input ligand: FMN 200 uM) | apparent KD of K4 kissing-loop reporter (input ligand: arginine 13.2 mM) | apparent KD of K4 kissing-loop reporter (input ligand: none) | apparent KD of K4 kissing-loop reporter [1] | apparent KD of K4 kissing-loop reporter [2] |
| --- | --- | --- | --- | --- | --- |
| AUGCUUAUAAUAACACUAUAUACAACUGAAGGAGCGACAAUAAAGUCAGGUAGGUCGCAGAAUAAAUGAGUGAUGUUCAUUUUUA [JR_ExcArginiA_Sub010] | 113 nM | 138 nM | 113 nM | 144 nM | 84.2 nM |
| AUUAAUAUCACGGCCGCCACUGAAUAUUGUUUUUAUAUUUAGAAUAAUUGCCAGUGAUGUUGGAUCAGGACCGGGUGAGUUUAUA [JR_SSTryptoB_Sub007] | 544 nM | 362 nM | 461 nM | 377 nM | 421 nM |
| AUUAAUUUCAGAGGAUAUCGUUAUUUUUUUAAGUAUAAUCUAUUUUGCAGUGAUGUUGCUAUUAAUCGAGAAGGCUGAUUUAUAA [JR_SSFMNB_Sub020] | 109 nM | 140 nM | 75.3 nM | 136 nM | 72.2 nM |
| AUUCGUUUAUGUGAUACCAGACUUUGCAGUGAUGUUGCAUUUAUUUUUGAAUUUUAGUUUGUCCCUUGGCAGCACUAUUUAUUUA [JR_SSTheophyB_Sub005] | 44.1 nM | 87.8 nM | 50.5 nM | 83.1 nM | 42.3 nM |
| AUUCUAUGGAGUGAUGUUCCUGUGAUGUCACGAGGACCGGUACGGCCGCCACUCGAUGUAUUGGUUUUUGAAAGAAACAACUGCA [Same State-Tryptophan A] | 566 nM | 701 nM | 842 nM | 773 nM | 279 nM |
| AUUUAAUUAACUGAUACCAGACUUUUUGUUUUGAUAAUUACUAGUGAUGUUAGUGUUUCUGUCCCUUGGCAGCAGAAUCUACUUA [JR_ExcTheophyB_Sub018] | 145 nM | 280 nM | 179 nM | 347 nM | 137 nM |
| AUUUAUGUAUCAGGAUAUUAGUGAUGUUUGUUUUUGUUAGUGAUGUUGAUAUUUGUUUUAUGUAUUUAAGAAGGGAUUGAGAUGU [wwewmullin] | 58.2 nM | 18.5 nM | 34.7 nM | 24.2 nM | 45.2 nM |
| AUUUGUUUAUGUGAUACCAGACUAAGCAGUGAUGUUGCUUUUAUUUUUGAAUUUUAAAUAGUCCCUUGGCAGCACUAUGUAUUUA [JR_SSTheophyB_Sub010] | 60.6 nM | 93.1 nM | 70.2 nM | 99.2 nM | 60.3 nM |
| AUUUUGUUGUCAGGAUAUUAGUAUGGUUUUGGUUUGUUAGUGAUGUUGAUGGUUUGUUUAUGUAUUUAAGAAGGGAUUUAGCGGU [swwsgumullin] | 693 nM | 463 nM | 534 nM | 573 nM | 424 nM |
| AUUUUUUUAUCAGGAUAUUAGUGUUGGUUUGUUUUGUUAGUGAUGUUGAUAUUUGUUUUAUGUAUUUAAGAAGGGAUUGUGAUGU [huupullin] | 473 nM | 371 nM | 409 nM | 381 nM | 264 nM |
| CAAAUGUUGUCAGGAUAUGAGCGCAGUGAUGUUGCGGUUGUAUUUAUGACUGGAGCAGCGUAAGCCUCAGAAGGGACAAGUUGCC [Qubioran] | 167 nM | 92.2 nM | 106 nM | 84.9 nM | 99.3 nM |
| CAACGAGUGAUGGUCGUUGACGGCCAUCCCGAGGAUAUGGGAUUAUCCAGAAGGCGGGAUCGCCGGGAGUGAUGUUCCCUGAUCA [Same State FMN A GF 14] | 139 nM | 181 nM | 168 nM | 300 nM | 151 nM |
| CAAGUCGAAAAGUGAUGUUUUUCAUACGAUACCAGCAACCAGACAUGCCCUUGGCAGCGUCCAUUACGUUUCUGAGCCCGUACAG [theeternabot_exclusion_KL_Theo_A_40] | 360 nM | 336 nM | 389 nM | 388 nM | 308 nM |
| CACCAUGAAUUCUCUAGGAGUGAUGUUUUUCGAGGACCGGUACGGCCGCCACUCGGACGAGGACCGUGGGAGCGGCGAAGCGGCU [?oegmullin] | 99.2 nM | 59.1 nM | 767 nM | 169 nM | 104 nM |
| CACCCAGUCCUCGAUACCAGACUGGCACGUCAAAAGGUCCAGUGAUGUUGAGCCUAACAAGUCCCUUGGCAGCGACCAGUGUAUU [theeternabot_exclusion_KL_Theo_B_30] | 680 nM | 573 nM | 729 nM | 619 nM | 623 nM |
| CACUCGGUAUCAGAUACCAGACUAUCGAUACCGAGUGUAUCGGGUAGUGAUGUUACCAUAGUCCCUUGGCAGCUGAUAUUGCAUA [Theo B SS t9b] | 73.3 nM | 94.1 nM | 71.7 nM | 87.7 nM | 59.2 nM |

| Sequence | apparent KD of K4 kissing-loop reporter (input ligand: FMN 200 uM) | apparent KD of K4 kissing-loop reporter (input ligand: arginine 13.2 mM) | apparent KD of K4 kissing-loop reporter (input ligand: none) | apparent KD of K4 kissing-loop reporter [1] | apparent KD of K4 kissing-loop reporter [2] |
| --- | --- | --- | --- | --- | --- |
| CACUUACGUAGUGAUGUUACGAUCUCUGAUACCAGACAACUCUAAGUCCCUUGGCAGCAGUCAUUUUGCUUAUUAUUUACUCAAA [JR_ExcTheophyA_Sub017] | 647 nM | 597 nM | 730 nM | 663 nM | 456 nM |
| CAGCCUGGUCAGUGAUGUUGGCCGCAGGGAAAGGAUAUUGUGUUGGCAAGAAGGUUCGCUUGAUCGUUGGCCCAUGCAUGGGCCU [theeternabot_sameState_KL_FMN_A_44] | 186 nM | 180 nM | 197 nM | 280 nM | 183 nM |
| CAUACGCAUGGAGGAUAUGAGAUUACUCAUGUCAUUUAAUAUUCUCAGUGAUGUUGAGAUUUUGGCUCAGAAGGCCAUGUGUAUG [Ex FMN B 18] | 436 nM | 496 nM | 534 nM | 599 nM | 543 nM |
| CAUACGCAUGGAGGAUAUGAGAUUUCUCAUAUUAUUUAAUAUUCUCAGUGAUGUUGGGAUUUAAACUCAGAAGGCCAUGUGUAUG [Ex FMN B 7] | 259 nM | 159 nM | 159 nM | 234 nM | 169 nM |
| CAUAGACAAGUGAUGUUUGUCAUAACCGAAGGAGCGUCGUUGAAGACAGGUAGGUCGCGGAUUAAUUAAGAUUAUAUUCUUUUUA [JR_SSArginiA_Sub019] | 605 nM | 485 nM | 634 nM | 624 nM | 505 nM |
| CAUAGGAAACUAUGUUUCUCUCUUACUGAAGGAGCGCGUGAAAACGCAGGUAGGUCGCAGAAUUUGAGAGUGAUGUUCUCAUUAA [Ex Arginine A K4 14] | 119 nM | 211 nM | 175 nM | 201 nM | 127 nM |
| CAUUCAGUGAUGUUGGAAGGCGAGCGGGAUACCAGCGGAGACUCACGCCCUUGGCAGCCCACAUAUCCCAGGUAGAUAAUAGUUC [Same State - Theophylline A (Freestyle 6)] | 237 nM | 139 nM | 203 nM | 189 nM | 188 nM |
| CAUUCGAAAUGCAGUGAUGUUGCAACUGAUACCAGUAUCGAAAGAUACCCUUGGCAGCGGAAAACCGCUACGUAUUUUUUGAAUG [Ex Theophylline A K4 25] | 257 nM | 317 nM | 270 nM | 356 nM | 253 nM |
| CAUUGUACACGGUGCGAAGACCCAAUGGAUACCAGCAAUACAUUAUGCCCUUGGCAGCCAAGAGUGAUGUUCGACGGACUAGAUU [theeternabot_sameState_KL_Theo_A_4] | 249 nM | 175 nM | 290 nM | 321 nM | 233 nM |
| CCAUCGCUAUUCGAUACCAGCUACUUAGUGAUGUUAAGUUAAAAUCCAUUGUAGAUGGAAAGCCCUUGGCAGCGAAUAGUGAUGG [Theophylline B K4 22] | 440 nM | 398 nM | 465 nM | 210 nM | 410 nM |
| CCAUCGCUAUUCGAUACCAGCUACUUAGUGAUGUUAAGUUUUUACCCACUGUAGGUGGGAAGCCCUUGGCAGCGAAUAGUGAUGG [Theophylline B K4 27] | 240 nM | 203 nM | 239 nM | 151 nM | 209 nM |
| CCAUCGCUAUUCGAUACCAGUCAUAAAAUCUUUGGUUAAAUAAAGGAGUGAUGUUCCCAAGACCCUUGGCAGCGAAUAGUGAUGG [Theophylline B K4 7] | 229 nM | 227 nM | 217 nM | 266 nM | 213 nM |
| CCAUUCAUUUACGAUACCAGUCUAAUAUAUUGAAUCAAAACCCUCGCCGAGUGAUGUUCGGACCCUUGGCAGCGUCUGCGAGAGG [ddrdkmullin] | 596 nM | 548 nM | 677 nM | 543 nM | 519 nM |
| CCCAAGGGCCUACCGGUAUGAUGGACGGAUACCAGAGGCGAAAGCCUCCCUUGGCAGCCGGGUGUAGUGAUGUUACUCCGGUAGU | 75.1 nM | 65.8 nM | 75 nM | 78.9 nM | 72 nM |
| CCGAUACAUUAUUCUACGGCCGAGAGUGAUACCAGCCAUAUUUAUGGCCCUUGGCAGCGCAGAUGCAGUGAUGUUGCAUACUUAC [Same State Theophylline A GF 19] | 85.7 nM | 119 nM | 91.5 nM | 115 nM | 73.7 nM |
| CCGGCCCGGCCGGAUACCAGUGCGCCGCAGGGAACGGCGGGCCCAGAGUGAUGUUCGGGACACCCUUGGCAGCCGCCUGGGUCGC [#2 Same State - Theophylline B Attempt #27 (HarryS)] | 286 nM | 123 nM | 231 nM | 225 nM | 245 nM |
